From patent publication US20250281586A1 (ELANCO US, published 2025)

Legend:
[1] = biological target: T1, recombinant mouse IL-1RI Fc chimera (R&D 771-MR-100) (mouse, UniProt P13504 20-338); experiment: ELISA on coated mouse IL-1RI Fc chimera, detection with biotinylated anti-cIL-1β antibody
T1 construct: Coated on ELISA plates at 1 µg/ml; used in place of canine and feline IL-1RI, which were not commercially available; also called IL-1RI receptor; Fc part of the bought chimera not given; not described
T1 sequence (looked up): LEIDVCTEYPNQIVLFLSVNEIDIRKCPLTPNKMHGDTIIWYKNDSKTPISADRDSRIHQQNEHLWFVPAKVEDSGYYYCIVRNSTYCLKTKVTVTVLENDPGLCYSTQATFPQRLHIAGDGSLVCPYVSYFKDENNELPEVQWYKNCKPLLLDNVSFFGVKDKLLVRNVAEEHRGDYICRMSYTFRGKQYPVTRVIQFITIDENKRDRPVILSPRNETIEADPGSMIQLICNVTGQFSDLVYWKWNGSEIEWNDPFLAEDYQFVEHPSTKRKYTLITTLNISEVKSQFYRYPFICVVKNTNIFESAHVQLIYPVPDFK

[2] = biological target: T1, recombinant mouse IL-1RI Fc chimera …; experiment: ELISA on coated mouse IL-1RI Fc chimera, detection with biotinylated anti-fIL-1β antibody
[3] = biological target: T1, recombinant mouse IL-1RI Fc chimera …; experiment: ELISA on coated mouse IL-1RI Fc chimera

B1: canine IL-1β wild type of SEQ ID NO:29 (ligand)
chain: AAMQSVDCKLQDISHKYLVLSNSYELRALHLNGENVNKQVVFHMSFVHGDESNNKIPVVLGIKQKNLYLSCVMKDGKPTLQLEKVDPKVYPKRKMEKRFVFNKIEIKNTVEFESSQYPNWYISTSQVEGMPVFLGNTRGGQDITDFTMEFSS
notes: also called purified canine IL-1β wild type; wild type canine IL-1β
Question: Does B1 bind [1]?
Answer: Result: binds

B2: commercially available recombinant canine IL-1β protein (R&D 3747-CL-025) (ligand, UniProt Q28292 115-266, looked up)
chain: B1 chain
notes: Bought protein; also called recombinant canine IL-1β purchased from R&D system; commercially available canine IL-1β standard
Question: Does B2 bind [1]?
Answer: Result: binds

B3: purified feline IL-1β wild type of SEQ ID NO:38 (ligand)
chain: AAIQSQDYTFRDISQKSLVLSGSYELRALHLNGQNMNQQVVFRMSFVHGEENSKKIPVVLCIKKNNLYLSCVMKDGKPTLQLEMLDPKVYPKKKMEKRFVFNKTEIKGNVEFESSQFPNWYISTSQAEEMPVFLGNTKGGQDITDFIMESAS
notes: also called purified wild type feline IL-1β; recombinant feline wild type IL-1β
Question: Does B3 bind [2]?
Answer: Result: binds

B4: cIL1b-D145K-CMV-Ntt830-E4 VLPs (other)
chain 1: MGQYIKANSKFIGITERRRRPRRGSRSAPSSADANFRVLSQQLSRLNKTLAAGRPTINHPTFVGSERCKPGYTFTSITLKPPKIDRGSGGGSEEEEGGGSGSYYGKRLLLPDSVTEYDKKLVSRIQIRVNPLPKFDSTVWVTVRKVPASSDLSVAAISAMFADGASPVLVYQYAASGVQANNKLLYDLSAMRADIGDMRKYAVLVYSKDDALETDELVLHVDVEHQRIPTSGVLPV
chain 2: MGSAAMQSVDCKLQDISHKYLVLSNSYELRALHLNGENVNKQVVFHMSFVHGDESNNKIPVVLGIKQKNLYLSCVMKDGKPTLQLEKVDPKVYPKRKMEKRFVFNKIEIKNTVEFESSQYPNWYISTSQVEGMPVFLGNTRGGQDITKFTMEFSSTSHHHHHHGGCG
modifications: engineered free cysteine linked to the maleimide of SMPH bound to the VLP; lysine on the VLP surface derivatized with SMPH
notes: also called cIL1b-D145K-CMV-Ntt830-E4 vaccine; cIL-1b-D145K-CMV vaccine
Question: Does B4 bind [3]?
Answer: Result: binds

B5: canine IL-1β-D145K mutein antigen (ligand)
chain: B4 chain 2
notes: expressed in E. coli and purified by IMAC and gel filtration; also called cIL-1β-D145K antigen; cIL1b-D145K-C6Hcg
Question: Does B5 bind [1]?
Answer: Result: binds

B6: fIL-1b-D145K-CMV-Ntt830-E4 VLPs (other)
chain 1: B4 chain 1
chain 2: GSAAIQSQDYTFRDISQKSLVLSGSYELRALHLNGQNMNQQVVFRMSFVHGEENSKKIPVVLCIKKNNLYLSCVMKDGKPTLQLEMLDPKVYPKKKMEKRFVFNKTEIKGNVEFESSQFPNWYISTSQAEEMPVFLGNTKGGQDITKFIMESASTSHHHHHHGGCG
modifications: engineered free cysteine linked to the maleimide of SMPH bound to the VLP; lysine on the VLP surface derivatized with SMPH
notes: also called fIL-1b-D145K-CMV-Ntt830-E4 vaccine; fIL1b145K-CMV-Ntt830-E4 vaccine
Question: Does B6 bind [3]?
Answer: Result: binds

B7: feline IL-1β-D145K mutein antigen (ligand)
chain: B6 chain 2
notes: also called fIL-1β-D145K antigen
Question: Does B7 bind [2]?
Answer: Result: binds
